In article PMC10724065, “Evolution of a plant growth-regulatory protein interaction specificity” (Nature Plants, 2023):

B1: Arabidopsis thaliana AtSLY1 (yeast bait fusion) [Arabidopsis thaliana] / A. thaliana GAI (yeast prey fusion) [Arabidopsis thaliana] (parent complex)
chain 1: MKRSTTDSDLAGDAHNETNKKMKSTEEEEIGFSNLDENLVYEVLKHVDAKTLAMSSCVSKIWHKTAQDERLWELICTRHWTNIGCGQNQLRSVVLALGGFRRLHSLYLWPLSKPNPRARFGKDELKLTLSLLSIRYYEKMSFTKRPLPESK
chain 2: MKRDHHHHHHQDKKTMMMNEEDDGNGMDELLAVLGYKVRSSEMADVAQKLEQLEVMMSNVQEDDLSQLATETVHYNPAELYTWLDSMLTDLNPPSSNAEYDLKAIPGDAILNQFAIDSASSSNQGGGGDTYTTNKRLKCSNGVVETTTATAESTRHVVLVDSQENGVRLVHALLACAEAVQKENLTVAEALVKQIGFLAVSQIGAMRKVATYFAEALARRIYRLSPSQSPIDHSLSDTLQMHFYETCPYLKFAHFTANQAILEAFQGKKRVHVIDFSMSQGLQWPALMQALALRPGGPPVFRLTGIGPPAPDNFDYLHEVGCKLAHLAEAIHVEFEYRGFVANTLADLDASMLELRPSEIESVAVNSVFELHKLLGRPGAIDKVLGVVNQIKPEIFTVVEQESNHNSPIFLDRFTESLHYYSTLFDSLEGVPSGQDKVMSEVYLGKQICNVVACDGPDRVERHETLSQWRNRFGSAGFAAAHIGSNAFKQASMLLALFNGGEGYRVEESDGCLMLGWHTRPLIATSAWKLSTN

Variants of: B1
Assay: yeast 2-hybrid; parent: 0.3; read off a plot

| Variant | response |
| --- | --- |
| chain 1 E138K | ~15 β-galactosidase units |
| chain 1 MKRSTTDSDLAGDAHNETNKKMKSTEEEEIGFSNLDENLVYEVLKHVDAKTLAMSSCVSKIWHKTAQDERLWELICTRHWTNIGCGQNQLRSVVLALGGFRRLHSLYLWPLSKSNPRARFGKDELKLTLSLLSIRYYEKMSFTKRPLPESK [chain 1 P114S] | ~41 β-galactosidase units |
| chain 1 MKRSTTDSDLAGDAHNETNKKMKSTEEEEIGFSNLDENLVYEVLKHVDAKTLAMSSCVSKIWHKTAQDERLWELICTRHWTNIGCGQNQLRSVVLALGGFRRLHSLYLWPLSKLNPRARFGKDELKLTLSLLSIRYYEKMSFTKRPLPESK [chain 1 P114L] | ~37 β-galactosidase units |
| chain 1 MKRSTTDSDLAGDAHNETNKKMKSTEEEEIGFSNLDENLVYEVLKHVDAKTLAMSSCVSKIWHKTAQDERLWELICTRHWTNIGCGQNQLRSVVLALGGFRRLHSLYLWPLSKPNPRARFGKDELKLALSLLSIRYYEKMSFTKRPLPESK [chain 1 T128A] | ~86 β-galactosidase units |
| chain 1 MKRSTTDSDLAGDAHNETNKKMKSTEEEEIGFSNLDENLVYEVLKHVDAKTLAMSSCVSKIWHKTAQDERLWELICTRHWTNIGCGQNQLRSVVLALGGFRRLHSLYLWPLSKPNPRARFGKDELKLSLSLLSIRYYEKMSFTKRPLPESK [chain 1 T128S] | ~44 β-galactosidase units |

Variants of: B1
Assay: yeast 2-hybrid; parent: 0.35; read off a plot

| Variant | response |
| --- | --- |
| chain 1 E138K | ~17 β-galactosidase units |
| chain 1 MKRSTTDSDLAGDAHNETNKKMKSTEEEEIGFSNLDENLVYEVLKHVDAKTLAMSSCVSKIWHKTAQDERLWELICTRHWTNIGCGQNQLRSVVLALGGFRRLHSLYLWPLSKLNPRARFGKDELKLTLSLLSIRYYEKMSFTKRPLPESK [chain 1 P114L] | ~25 β-galactosidase units |
| chain 1 MKRSTTDSDLAGDAHNETNKKMKSTEEEEIGFSNLDENLVYEVLKHVDAKTLAMSSCVSKIWHKTAQDERLWELICTRHWTNIGCGQNQLRSVVLALGGFRRLHSLYLWPLSKPNPRARFGKDELKLALSLLSIRYYEKMSFTKRPLPESK [chain 1 T128A] | ~77 β-galactosidase units |

Variants of: B1
Assay: pull-down (IP: His, immunoblot); without GST-GID1C, without GA3 (GAI in A Form); parent: 1

| Variant | ratio to parent |
| --- | --- |
| chain 1 E138K | 1.86 |
| chain 1 MKRSTTDSDLAGDAHNETNKKMKSTEEEEIGFSNLDENLVYEVLKHVDAKTLAMSSCVSKIWHKTAQDERLWELICTRHWTNIGCGQNQLRSVVLALGGFRRLHSLYLWPLSKLNPRARFGKDELKLTLSLLSIRYYEKMSFTKRPLPESK [chain 1 P114L] | 1.89 |
| chain 1 MKRSTTDSDLAGDAHNETNKKMKSTEEEEIGFSNLDENLVYEVLKHVDAKTLAMSSCVSKIWHKTAQDERLWELICTRHWTNIGCGQNQLRSVVLALGGFRRLHSLYLWPLSKPNPRARFGKDELKLALSLLSIRYYEKMSFTKRPLPESK [chain 1 T128A] | 2.27 |

Variants of: B1
Assay: pull-down (IP: His, immunoblot); with GST-GID1C, with GA3 (GAI in A + A' Forms); parent: 2.41

| Variant | response |
| --- | --- |
| chain 1 E138K | 3.88 relative anti-MBP band intensity (SLY1 without GST-GID1C and GA3 = 1.00) |
| chain 1 MKRSTTDSDLAGDAHNETNKKMKSTEEEEIGFSNLDENLVYEVLKHVDAKTLAMSSCVSKIWHKTAQDERLWELICTRHWTNIGCGQNQLRSVVLALGGFRRLHSLYLWPLSKLNPRARFGKDELKLTLSLLSIRYYEKMSFTKRPLPESK [chain 1 P114L] | 7.38 relative anti-MBP band intensity (SLY1 without GST-GID1C and GA3 = 1.00) |
| chain 1 MKRSTTDSDLAGDAHNETNKKMKSTEEEEIGFSNLDENLVYEVLKHVDAKTLAMSSCVSKIWHKTAQDERLWELICTRHWTNIGCGQNQLRSVVLALGGFRRLHSLYLWPLSKPNPRARFGKDELKLALSLLSIRYYEKMSFTKRPLPESK [chain 1 T128A] | 9.37 relative anti-MBP band intensity (SLY1 without GST-GID1C and GA3 = 1.00) |

Variants of: B1
Assay: pull-down (IP: His, immunoblot); parent: 1

| Variant | ratio to parent |
| --- | --- |
| chain 1 MKRSTTDSDLAGDAHNETNKKMKSTEEEEIGFSNLDENLVYEVLKHVDAKTLAMSSCVSKIWHKTAQDERLWELICTRHWTNIDCGQNQLRSVVLALGGFRRLHSLYLWPLSKPNPRARFGKDELKLTLSLLSIRYYEKMSFTKRPLPESK [chain 1 G84D] | 1.41 |
| chain 1 MKRSTTDSDLAGDAHNETNKKMKSTEEEEIGFSNLDENLVYEVLKHVDAKTLAMSSCVSKIWHKTAQDERLWELICTRHWTNIGCGQNQLRSVVLALGGFRRLHSLYLWPLSKPNPRARFGKDELKLALSLLSIRYYEKMSFTKRPLPESK [chain 1 T128A] | 2.36 |

Variants of: B1
Assay: yeast 2-hybrid; parent: 0.35; read off a plot
Remark: another data set of the same source

| Variant | response |
| --- | --- |
| chain 1 MKRSTTDSDLAGDAHNETNKKMKSTEEEEIGFSNLDENLVYEVLKHVDAKTLAMSSCVSKIWHKTAQDERLWELICTRHWTNIGCGQNQLRSVVLALGGFRRLHSLYLWPLSKSNPRARFGKDELKLTLSLLSIRYYEKMSFTKRPLPESK [chain 1 P114S] | ~55 β-galactosidase units |
| chain 1 MKRSTTDSDLAGDAHNETNKKMKSTEEEEIGFSNLDENLVYEVLKHVDAKTLAMSSCVSKIWHKTAQDERLWELICTRHWTNIGCGQNQLRSVVLALGGFRRLHSLYLWPLSKLNPRARFGKDELKLTLSLLSIRYYEKMSFTKRPLPESK [chain 1 P114L] | ~63 β-galactosidase units |
